Measurements as given in the supplement of paper PMC6757056.
± gives the standard deviation of the averaged measurements.

B1: library; a variant is named by its letters at N, in order (parent)
chain: GCUGUCACCGGUGCUUGGUACGUUAUAUUCAGCCGGUCUGAUGAGUCUNNNNNNAGACGAAACAGC

Key:
(6R,S)-folinic acid [1] = variants of: B1; test: normalized RNA/DNA level without ligand (relative to sTRSVctl = 100) (log10 (% of sTRSVctl)); HEK293T overexpressing SLC46A1; higher = less ribozyme self-cleavage, higher mRNA level; settings: without (6R,S)-folinic acid; ligand present: no
Summary of the method: (§1)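 HEK293T cells received ligand, where used, 1 h before being transfected with 4 µg per 6-well well of library plasmids encoding reporter-linked ribozyme switches. After 72 h, RNA was extracted with EDTA and sequenced. RNA level was derived from RNA reads per DNA read, normalized to a spiked-in non-cleaving sequence or the top sequences, then scaled and log-transformed. Values were ×100 then log10, the top set was 25 sequences, and the minimum was 100 DNA reads.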

(6R,S)-folinic acid [2] = variants of: B1; test: normalized RNA/DNA level with ligand (relative to sTRSVctl = 100) (log10 (% of sTRSVctl)); HEK293T overexpressing SLC46A1; ligand concentration (+) RNA-Seq: 6 mM; higher = less ribozyme self-cleavage, higher mRNA level; settings: with (6R,S)-folinic acid; ligand present: yes
Summary of the method: as §1

Variant | normalized RNA/DNA level without ligand (log10) ((6R,S)-folinic acid [1]) | normalized RNA/DNA level with ligand (log10) ((6R,S)-folinic acid [2])
GCUGUCACCGGUGCUUGGUACGUUAUAUUCAGCCGGUCUGAUGAGUCUCUACAUAGACGAAACAGC | 1.974 ± 0.0066 | 2.02 ± 0.039
GCUGUCACCGGUGCUUGGUACGUUAUAUUCAGCCGGUCUGAUGAGUCUCUACCCAGACGAAACAGC | 2.045 ± 0.011 | 2 ± 0.047
GCUGUCACCGGUGCUUGGUACGUUAUAUUCAGCCGGUCUGAUGAGUCUCUACCGAGACGAAACAGC | 2.06 ± 0.029 | 2.05 ± 0.025
GCUGUCACCGGUGCUUGGUACGUUAUAUUCAGCCGGUCUGAUGAGUCUCUACCUAGACGAAACAGC | 2.044 ± 0.02 | 2.01 ± 0.026
GCUGUCACCGGUGCUUGGUACGUUAUAUUCAGCCGGUCUGAUGAGUCUCUACCAAGACGAAACAGC | 2.0575 ± 0.0015 | 2.0336 ± 0.0013
GCUGUCACCGGUGCUUGGUACGUUAUAUUCAGCCGGUCUGAUGAGUCUAUACGAAGACGAAACAGC | 1.9851 ± 0.0003 | 2.01 ± 0.043
GCUGUCACCGGUGCUUGGUACGUUAUAUUCAGCCGGUCUGAUGAGUCUAUACGCAGACGAAACAGC | 2.015 ± 0.018 | 1.998 ± 0.013
GCUGUCACCGGUGCUUGGUACGUUAUAUUCAGCCGGUCUGAUGAGUCUAUACGUAGACGAAACAGC | 2.005 ± 0.0023 | 2.026 ± 0.01
GCUGUCACCGGUGCUUGGUACGUUAUAUUCAGCCGGUCUGAUGAGUCUUUACUAAGACGAAACAGC | 1.978 ± 0.0023 | 2.01 ± 0.034
GCUGUCACCGGUGCUUGGUACGUUAUAUUCAGCCGGUCUGAUGAGUCUUUACUCAGACGAAACAGC | 2.048 ± 0.0074 | 2.03 ± 0.027
GCUGUCACCGGUGCUUGGUACGUUAUAUUCAGCCGGUCUGAUGAGUCUUUACUUAGACGAAACAGC | 1.991 ± 0.0083 | 1.994 ± 0.019
GCUGUCACCGGUGCUUGGUACGUUAUAUUCAGCCGGUCUGAUGAGUCUGUACAUAGACGAAACAGC | 1.965 ± 0.005 | 2.01 ± 0.034
GCUGUCACCGGUGCUUGGUACGUUAUAUUCAGCCGGUCUGAUGAGUCUUUACGGAGACGAAACAGC | 2.018 ± 0.0069 | 2.049 ± 0.016
GCUGUCACCGGUGCUUGGUACGUUAUAUUCAGCCGGUCUGAUGAGUCUUUACGAAGACGAAACAGC | 2.013 ± 0.011 | 2.04 ± 0.035
GCUGUCACCGGUGCUUGGUACGUUAUAUUCAGCCGGUCUGAUGAGUCUUUACGCAGACGAAACAGC | 1.995 ± 0.011 | 1.995 ± 0.018
GCUGUCACCGGUGCUUGGUACGUUAUAUUCAGCCGGUCUGAUGAGUCUGUACGUAGACGAAACAGC | 1.986 ± 0.006 | 2.03 ± 0.049
GCUGUCACCGGUGCUUGGUACGUUAUAUUCAGCCGGUCUGAUGAGUCUGUACGCAGACGAAACAGC | 2.01 ± 0.029 | 2.03 ± 0.026
GCUGUCACCGGUGCUUGGUACGUUAUAUUCAGCCGGUCUGAUGAGUCUAUACCGAGACGAAACAGC | 2.013 ± 0.013 | 2.04 ± 0.042
GCUGUCACCGGUGCUUGGUACGUUAUAUUCAGCCGGUCUGAUGAGUCUAUACCCAGACGAAACAGC | 2.023 ± 0.003 | 2.01 ± 0.023
GCUGUCACCGGUGCUUGGUACGUUAUAUUCAGCCGGUCUGAUGAGUCUAUACCUAGACGAAACAGC | 2.0169 ± 0.00086 | 2.025 ± 0.011
GCUGUCACCGGUGCUUGGUACGUUAUAUUCAGCCGGUCUGAUGAGUCUGUACCCAGACGAAACAGC | 2.02 ± 0.03 | 2.03 ± 0.06

Variant | normalized RNA/DNA level without ligand (log10) ((6R,S)-folinic acid [1]) | normalized RNA/DNA level with ligand (log10) ((6R,S)-folinic acid [2])
GCUGUCACCGGUGCUUGGUACGUUAUAUUCAGCCGGUCUGAUGAGUCUGUACCAAGACGAAACAGC | 2.0976 ± 0.0018 | 2.038 ± 0.013
GCUGUCACCGGUGCUUGGUACGUUAUAUUCAGCCGGUCUGAUGAGUCUGUACCGAGACGAAACAGC | 2.088 ± 0.0044 | 2.06 ± 0.014
GCUGUCACCGGUGCUUGGUACGUUAUAUUCAGCCGGUCUGAUGAGUCUGUACCUAGACGAAACAGC | 2.086 ± 0.0075 | 2.06 ± 0.051
GCUGUCACCGGUGCUUGGUACGUUAUAUUCAGCCGGUCUGAUGAGUCUCUACGCAGACGAAACAGC | 2.025 ± 0.013 | 2.028 ± 0.0021
GCUGUCACCGGUGCUUGGUACGUUAUAUUCAGCCGGUCUGAUGAGUCUCUACGAAGACGAAACAGC | 2.045 ± 0.012 | 2.05 ± 0.028
GCUGUCACCGGUGCUUGGUACGUUAUAUUCAGCCGGUCUGAUGAGUCUCUACGUAGACGAAACAGC | 2 ± 0.01 | 1.99 ± 0.035
GCUGUCACCGGUGCUUGGUACGUUAUAUUCAGCCGGUCUGAUGAGUCUCUACGGAGACGAAACAGC | 2.102 ± 0.0025 | 2.092 ± 0.0045
GCUGUCACCGGUGCUUGGUACGUUAUAUUCAGCCGGUCUGAUGAGUCUUUACAUAGACGAAACAGC | 1.96 ± 0.025 | 1.98 ± 0.028
GCUGUCACCGGUGCUUGGUACGUUAUAUUCAGCCGGUCUGAUGAGUCUUUACAGAGACGAAACAGC | 1.898 ± 0.017 | 1.99 ± 0.027
GCUGUCACCGGUGCUUGGUACGUUAUAUUCAGCCGGUCUGAUGAGUCUAUACUUAGACGAAACAGC | 2.018 ± 0.013 | 2.01 ± 0.043
GCUGUCACCGGUGCUUGGUACGUUAUAUUCAGCCGGUCUGAUGAGUCUAUACUGAGACGAAACAGC | 1.939 ± 0.0046 | 2.01 ± 0.03
GCUGUCACCGGUGCUUGGUACGUUAUAUUCAGCCGGUCUGAUGAGUCUAUACUAAGACGAAACAGC | 1.97 ± 0.026 | 1.99 ± 0.025
GCUGUCACCGGUGCUUGGUACGUUAUAUUCAGCCGGUCUGAUGAGUCUCUACUGAGACGAAACAGC | 2.0146 ± 0.00058 | 2.04 ± 0.024
GCUGUCACCGGUGCUUGGUACGUUAUAUUCAGCCGGUCUGAUGAGUCUCUACUAAGACGAAACAGC | 2.02 ± 0.021 | 2.05 ± 0.04
GCUGUCACCGGUGCUUGGUACGUUAUAUUCAGCCGGUCUGAUGAGUCUCUACUCAGACGAAACAGC | 2.05 ± 0.021 | 2.03 ± 0.039
GCUGUCACCGGUGCUUGGUACGUUAUAUUCAGCCGGUCUGAUGAGUCUCUACUUAGACGAAACAGC | 2.03 ± 0.022 | 2.02 ± 0.039
GCUGUCACCGGUGCUUGGUACGUUAUAUUCAGCCGGUCUGAUGAGUCUUUACCAAGACGAAACAGC | 2.03 ± 0.0034 | 2.028 ± 0.016
GCUGUCACCGGUGCUUGGUACGUUAUAUUCAGCCGGUCUGAUGAGUCUUUACCUAGACGAAACAGC | 2.061 ± 0.0025 | 2.05 ± 0.04
GCUGUCACCGGUGCUUGGUACGUUAUAUUCAGCCGGUCUGAUGAGUCUUUACCGAGACGAAACAGC | 1.969 ± 0.0046 | 2 ± 0.04
GCUGUCACCGGUGCUUGGUACGUUAUAUUCAGCCGGUCUGAUGAGUCUGUACUGAGACGAAACAGC | 2.002 ± 0.013 | 2.015 ± 0.017
